Assay results taken from article PMC9335243.

Molecular target: T. laurifolia Δ6-18:0-ACP desaturase, N-11 truncation (Thunbergia laurifolia)
Experiment: crystal structure

stoichiometry N: 2
Substance: T. laurifolia Δ6-18:0-ACP desaturase, N-11 truncation (enzyme)
